# In the DeepSol protein solubility set:
# Experiment: soluble on expression in E. coli; label from the status in PepcDB or PDB records
row,Sequence,soluble on expression in E. coli
1,MGKLEDICDQYLSRKKEQDKVIEAVERCLKKGYDYEKLKDRVQEAISDPQKARKVISAVCDHYPQLRKRTRTDRDGEDRDRKRDRTDDRRKPDASVPAAVAEPQKPAEQSIEERLRAKEMMYKAQQEIEETKRKMAIAAGTLQPKAALAQAKTQMVAPGGKSLSLGRDEATMLMTHSMDKKSRMEELKARLARTTVMAKIDAMVGNSGAGVMAPLPEAVQQAEKKVQQQITKESKEPEKLIEYLDPRIQARTADRRRRGFNFHEKGEFEKLANKQRAMAKLERLQNEVSSAAQSTGISSAVKLAMVTPTGTAKMENGVPDIEWWDMLVLDKVNYDEIPAENDMERYSQTVSELVEHPISMRAPTEPLTQQYLKVYLTTKEKKKIRRQNRKEVLKEKTEKIRLGLEKAPEPKVKISNLMRVLGNEAIQDPTKMEAQVRKQMAERLKKHETLNAERKLTEDQKRAKKTKKLSEDTSTAVNVSVYRVKSLAHPSKKFKVETNAKQLQMSGAIMMHKAQNVIVVEGGPKQQKFYKNLMINRIKWSDEIIGQKKDAEKDAPGERNLCEMIWEGQVKRRNFRDFTVHTATLEKQAREFFEKHGVAQYWDLCYSTTVLLEGQDILPTA,not soluble
2,MGKLFGTFGVRGIANEKITPEFAMKIGMAFGTLLKREGRKKPLVVVGRDTRVSGEMLKEALISGLLSVGCDVIDVGIAPTPAVQWATKHFNADGGAVITASHNPPEYNGIKLLEPNGMGLKKEREAIVEELFFKEDFDRAKWYEIGEVRREDIIKPYIEAIKSKVDVEAIKKRKPFVVVDTSNGAGSLTLPYLLRELGCKVITVNAQPDGYFPARNPEPNEENLKEFMEIVKALGADFGVAQDGDADRAVFIDENGRFIQGDKTFALVADAVLKEKGGGLLVTTVATSNLLDDIAKKHGAKVMRTKVGDLIVARALYENNGTIGGEENGGVIFPEHVLGRDGAMTVAKVVEIFAKSGKKFSELIDELPKYYQIKTKRHVEGDRHAIVNKVAEMARERGYTVDTTDGAKIIFEDGWVLVRASGTEPIIRIFSEAKSKEKAQEYLNLGIELLEKALS,soluble
3,MGKLIDIPIVVESGQKYKTSQGVTAIKDGIKSSGQDHERLPKPKWLRIVNHTTPAYSQVKEQVQKHRLATVCEEAKCPNISECWSHGTATIMLMGAVCTRACRFCSVDTGNPHGWLDAEEPENTAETVALMNLDYVVLTSVNRDDLPDGGANHYAKTIRAIKKRSPRTKVEALTPDFQGSERDVAVLLDSGVDVFAQNVETVERLTHPVRDNRAGYQQTLNVLAFAKKYRPDVLTKTSLMLGLGETDEEIIQTMDDLRTHHVDILTLGQYLQPTKNHLPIARYVTPETFSELRQIGLKKGFFEVASGPLVRSSYRADRVFKRDNLGLDV,not soluble
4,MGKLKWFSGGKERSNQAENIITDLLDDLKTDLDNESLKKVLENYLEELKQKSASVPLILSRMNLDISKAIRNDGVTLSDYQSKKLKELTSISNIRYGY,soluble
5,MGKLNRRDVIKGLGMAAASLAAAQRGLQARAAPSRIVWSPYVVFLNANAKAFIVDTRTDQVVASLDTARGATLGSMTPDAKKVYVSGAGEGETRVVILDLENLRVAKVLETGNRPKHGLVSPDGRRVGVDHWALSGGKLRLTFIRTEDDTIEKVLDIPVTNQPKGVTSMHNAWSWDSRYFFSVDRVDDRLVVVDTADWSVRTFSAPSVPHYPVVSPDGKELWLVHEGNDRVRPGIAVYDLTRPDLPIVAQVEMPLIGEDAVEAHHGNFTQDGRYFMALNRGPGNNLRGREVAFFSPRTKRLVHRLTCASTGVGHAYNSPDGRRVIATNYGNNVITVIDLLGLRTLKDLVIGKGRMGHVVFTPDGRFAYLSNADGNLYKLDMRSLTVVKVIETGQTNGGGQVLNVWTNVFEELPRG,soluble
6,MGKREKKPNRRRHKGEYSNDAEDFYDQHPPAVASVDEEDEENSDEEEEENDGNESSDLPSKFLLYQQSVQSPKGDISYLQKFFLIFYIDCWNSAEWLKTDTRRTAIGLDFDLEALEWCMDNNISKLGSDVYSRMSLFHGNVLTPLEAKQVKSKSHELIQNISLDDGDDNEDLADPSVVESLEKDGPDSLPKRDIVCAFNFSCCCLHKRSELVSYFKNARDALSKKGGIFVMDLYGGASAEGQLKLQRKFPNFTYTWEQAEFDILSRKTRISLHYHLQKQNRKIRHAFSYSWRLWSLPEIKDCMEEAGFSSVHFWLREMPDASEMRRTDGFGAGRDIKYEQVKSFQQCDSWNAYIVAVSL,not soluble
7,MGKTLVVGAGGVSHAAVHKMAMNSDIFTEITLASRTKAKCDAIAASVKERTGVTIQTAALDAMDVAATVALIKETGAEILVNLALPYQDLKLMDACLEAGCHYLDTANYEPEDVAKFEYHWQWAYQDKFKEAGLTAILGSGFDPGVTSVFATWLKKHKLATIRQIDVLDA,not soluble
8,MGLKVLLYDPDGEIAHFLEDIFEVTGHTLYPAGSEEEVFEYLKNEPEFFFLPFSLKEAWVNSLKERATIPIFFLFSEEEEERAKGLGIPEVNLVRVPFNPLELFERLGLLHKMKPKDFQEIGLFNTLVKSHLEEKGVKVKIKGSGGECLVNTYPVSLSCRLEELKELLKKRLRTGRR,not soluble
9,MGLTAMGLTTMGLTTVGLATMGATTKISQQHFFKFSRSDPIVLLQYSYSTTTVPRPYPTNNSKPISLQKTKTQFFLNYSNPTVLLQYLYSTTTVPRPYPTTNPKLISLQQPKTPFLSPRIRLVLREHERCRGALSDVWVAGAARGAVRCAKLYNKTRHVIRKISANKRKLFPLFYCYTYIHTYKNQVSPEKNANQKGKRMFPRFMVGVALIFELNNYDIETSCSHSSSSFSARLSSADYEVYWARALQILHVGGVEIDEFGGG,not soluble
10,MGLYEKIVNKEEKISVIGLGYVGMPLAIAFAKYAQVIGFDVDKKKIEIYKSGIDPTKEIGNEAIKNTTVEFTSDETKLKEAKFHIVAVPTPINIDKTPDLTPVESASVIVGRNMARGSYVVYESTVYPGVTEDICIPILERESGLKCGVDFKVGYSPERINPGDKKHTLETIKKIVSAIDDESLDEIAKIYSLVIKAGVHKTSSIKVAEAAKVVENSQRDINIAFMNELAMVFDRMGIDTKEVIDAMNTKWNALGFYPGLVGGHCIGVDPYYFIYQAEKLGYHSQIILSGRKINDGMGEFIANTIIKKLIHVNKVVKKSKVVIFGITYKENCPDTRNSKVVDIIKGLNEYGIEPIVVDPQANREDTKQEYGIELMDIDDVKDADCLVFAVAHDEFKNMAWEQIEKFFKNIDNSEKVIIDVKGIFDKNKIEKLGYCYWRL,soluble
11,MGNALVKKEPPPPVVLVPPLFDYPPLSARTRMLESSYNLLFGKLALRCLFEDYFEEANRFTGKFLLKPTDDPHVDLVASVSGAVDGRVEGDFVGNAEFRWQSDVDDPHTFVDLSVSTSNPVLLMRSSAYYPKYGIGAFAVYPLISKITGKSSEEYRIMGLRYGSTNLSVGATVTPFSANNELPKHAWLVSKMGSLTVGVQYEPLHGSKDLAKYTDPRNWSCAAGYGVGSQSPLTPSFNIGIELARSSQFIASFYQHVVVQRRVQNPFEENQVVGITNYIDFGFELQSRVDDSKTPPNAPDSLLQVAASWQANKNFLLKGKVGAHSSTLSLAFKSWWKPSFAFNISATTNHRTGNVQCGFGLRVDNLREASYQRADPNFVMLTPNKEHLAEGIVWKMGKRPMYQADVDAENFSELPKELRPSQKIL,soluble
12,MGNGLAKCLIDGDTETFWHAKWQGGSDPLPYDIVIDMKQNIQIAQVELLPRGRGSNNPIKVVEFAASEDNVNWTPIGRFGFTNQDAALEYYVKSIKARYIRLTIPDDGGNSTVAAIRELDVKGTIINLEHHHHHH,not soluble
13,MGNPTGFINVGRALPTERKAGERLSDWLEVYEEIPLKAVEKQASRCMDCGVPFCQSAKSEFAPAVAGCPVNNVIPEWNDLIYRGRWKDAIELLHKTNNFPEFTGRVCPAPCEGACVLGINADPVAIKLHEKEIIDHAFKEGWVVAQPPSARTGKNVAVIGSGPAGLAAAAQLNKAGHMVTVYERADRIGGLLMYGIPNMKLQKELVQRRVDILAEEGIVFVTNTEVGKDVSVEKLESDFDAIVLCIGATVPRDLPVEGRELNGVHFAMDFLKANTKSLLDSEHKDGQYINAQGKNVVVIGGGDTGTDCIGTSLRHQCTNALQLEIMPRPPEKREENNNPWPQWPKRLLVDYGQKEAIEIQGQDPRQYLVMTKKIESDVQGNVKAVHTVDITWERNDKGQMFPQEVAGSEKAIPADIVLIAMGFMGPEGGLVEQFGLEQDNRSNIAAEYDKFATSKQGVFAAGDGRRGQSLIVWAIDEGRRCAREVDSYLMGKSYLPLEHHHHHH,not soluble
